B1: C-terminal octapeptide of Hsp90 (TSRMEEVD) [not stated] / TPR domain of AtToc64 with a C-terminal hexa-histidine tag (AtToc64_TPR-H6) [Arabidopsis thaliana] (parent complex)
chain 1: TSRMEEVD
chain 2: AEIAKEKGNQAFKEKLWQKAIGLYSEAIKLSDNNATYYSNRAAAYLELGGFLQAEEDCTKAITLDKKNVKAYLRRGTAREMLGDCKGAIEDFRYALVLEPNNKRASLSAERLRKFQ
B2: C-terminal octapeptide of Hsp70 (GPTIEEVD) [not stated] / TPR domain of AtToc64 with a C-terminal hexa-histidine tag (AtToc64_TPR-H6) [Arabidopsis thaliana] (parent complex)
chain 1: GPTIEEVD
chain 2: B1 chain 2

Variants of: B1
Experiment: ITC; parent: 2.18e+05 nM
chain 1 TSRMEAVD [chain 1 E6A] gave a Kd of 1900 µM. Variant chain 1 TSRAEEVD [chain 1 M4A] has a Kd of 1080 µM. chain 1 TSRMEEVA [chain 1 D8A] was tested, and the Kd was 1400 µM.

Variants of: B2
Experiment: ITC; parent: 2.3e+05 nM
In the case of chain 1 GPTAEEVD [chain 1 I4A], the Kd is reported as 4600 µM.
